The target of test [1] is T1, human BCMA expressed on the cell surface (human, UniProt Q02223 1-184).
T1 construct: The same molecule is used here for hBCMA-CHO GS cells and for the endogenous BCMA of the myeloma lines; also called Human BCMA CHO-S cell; H929
T1 sequence: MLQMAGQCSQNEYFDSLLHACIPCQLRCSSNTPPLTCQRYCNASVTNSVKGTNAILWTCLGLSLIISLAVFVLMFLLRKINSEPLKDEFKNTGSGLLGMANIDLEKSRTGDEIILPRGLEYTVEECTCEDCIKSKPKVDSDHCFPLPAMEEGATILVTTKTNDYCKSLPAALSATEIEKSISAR
Put plainly: flow cytometry, 10 nM antibody on human BCMA CHO-S cells. In general terms: In flow cytometry, cells or beads pass a laser one at a time.

Test [2] deals with T2, Cynomolgus monkey BCMA-Fc (cynomolgus monkey, UniProt A0A2K5UD97 1-53).
T2 construct: also called BCMA from cynomolgus monkey (mobile phase); not shown: Fc part
The test can be described thus: BLI (ForteBio Octet), IgG captured on AHC probe, antigen in solution, avid. (BLI is a label-free optical method that tracks binding on a fibre tip over time.)

Test [3] has as its target T1, human BCMA expressed on the cell surface. The test can be described thus: flow cytometry, 10 nM antibody on H929 cells.
The target of another test is T3, Human BCMA monomer (human, UniProt Q02223 1-54, limits assumed).
T3 construct: also called BCMA from human (mobile phase)
T3 sequence (looked up): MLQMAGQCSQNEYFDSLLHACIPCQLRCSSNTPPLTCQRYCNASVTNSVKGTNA
Put plainly: BLI (ForteBio Octet), IgG captured on AHC probe, antigen in solution, monovalent.

A further test addresses T4, Human BCMA-IHM (human, UniProt Q02223 1-54).
T4 construct: also called BCMA from human (mobile phase); not shown: 'IHM' is not explained; it may be a tag
T4 sequence (looked up): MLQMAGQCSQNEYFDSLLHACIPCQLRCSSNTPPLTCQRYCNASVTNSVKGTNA
The test is described as above.

The target in test [4] is T1, human BCMA expressed on the cell surface. The test can be described thus: flow cytometry, 10 nM antibody on human BCMA CHO-S cells against CHO-S cells.
A further test addresses T5, Mouse BCMA-Fc (mouse, UniProt O88472 1-49, limits assumed).
T5 construct: also called BCMA from mouse (mobile phase); not shown: Fc part
Put plainly: BLI (ForteBio Octet), IgG captured on AHC probe, antigen in solution, avid.

Test [5] addresses T1, human BCMA expressed on the cell surface. Put plainly: flow cytometry on H929 cells.
For test [6] the target is unchanged. Put plainly: flow cytometry on MM.1s cells.
For test [7], the target named is T6, mouse BCMA expressed on CHO GS cells (mouse, UniProt O88472 1-185).
T6 construct: whole, on cells; also called mBCMA-CHO GS; mBCMA-CHO-GS
T6 sequence (looked up): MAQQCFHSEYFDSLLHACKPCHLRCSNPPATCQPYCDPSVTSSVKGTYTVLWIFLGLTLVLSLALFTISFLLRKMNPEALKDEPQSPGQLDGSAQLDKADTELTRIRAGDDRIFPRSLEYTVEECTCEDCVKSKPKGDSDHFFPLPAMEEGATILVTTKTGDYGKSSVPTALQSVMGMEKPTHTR
Put plainly: flow cytometry on mBCMA-CHO-GS cells.

For test [8], the target named is T1, human BCMA expressed on the cell surface. Put plainly: flow cytometry on L363 cells.
Test [9] has the same target. Put plainly: flow cytometry on U266 cells.
Test [10] has the same target. The test can be described thus: flow cytometry on hBCMA-CHO-GS cells.
The target of test [11] is T7, recombinant cynomolgus monkey BCMA protein (cynomolgus monkey, UniProt A0A2K5UD97 1-53).
T7 construct: The construct is not described
Put plainly: SPR (Biacore T200), antibody captured by anti-human Fc on CM5 chip, antigen 1.25-40 nM, 1:1 model. In general terms: SPR reads the build-up and loss of mass on a sensor chip optically.

Test [12] addresses T8, recombinant human BCMA protein (human, UniProt Q02223 1-54, limits assumed).
T8 construct: The construct is not described
T8 sequence (looked up): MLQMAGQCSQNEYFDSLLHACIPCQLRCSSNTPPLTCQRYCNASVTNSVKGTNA
The test is described as above.

The target in test [13] is T9, recombinant rat BCMA protein (rat).
T9 construct: The construct is not described
The test is described as above.

Test [14] concerns the target T10, recombinant mouse BCMA protein (mouse, UniProt O88472 1-49, limits assumed).
T10 construct: The construct is not described
T10 chain (looked up): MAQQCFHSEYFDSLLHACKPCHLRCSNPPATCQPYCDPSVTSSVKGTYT
The test is described as above.

Test [15] has as its target T11, cynomolgus monkey BCMA expressed on CHO GS cells (cynomolgus monkey, UniProt A0A2K5UD97 1-183).
T11 construct: whole, on cells; also called cynoBCMA-CHO GS; cynoBCMA-CHO-GS
Put plainly: flow cytometry on cynoBCMA-CHO-GS cells.

Test [16] deals with T1, human BCMA expressed on the cell surface. The test can be described thus: flow cytometry on RPMI8226 cells.
Test [17] has the same target. The test can be described thus: flow cytometry on AMO1 cells.

The record followed here is patent US20250034268A1 (Innovent, published 2025).

T7 sequence (A0A2K5UD97 entry or part of it): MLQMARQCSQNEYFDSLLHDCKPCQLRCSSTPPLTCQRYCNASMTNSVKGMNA
T11 sequence (A0A2K5UD97 entry or part of it): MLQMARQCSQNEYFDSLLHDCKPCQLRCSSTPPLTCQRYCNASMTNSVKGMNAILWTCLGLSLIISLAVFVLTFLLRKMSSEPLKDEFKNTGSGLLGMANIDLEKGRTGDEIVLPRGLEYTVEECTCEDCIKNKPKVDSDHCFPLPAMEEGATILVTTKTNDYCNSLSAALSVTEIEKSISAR

B1: anti-BCMA parent antibody ADI-34857 (antibody, V domains shown)
VH: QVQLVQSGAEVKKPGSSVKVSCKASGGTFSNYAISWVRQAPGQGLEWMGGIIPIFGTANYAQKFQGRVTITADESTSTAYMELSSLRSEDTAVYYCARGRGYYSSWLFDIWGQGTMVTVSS
VL: DIQMTQSPSSLSASVGDRVTITCQASQDITNYLNWYQQKPGKAPKLLIYDASNLETGVPSRFSGSGSGTDFTFTISSLQPEDIATYYCQQAFDLITFGGGTKVEIK
notes: Tested as IgG (captured by anti-human Fc probe)
As a reminder, the Kd is the free concentration of one partner at which half of the binding sites on the other are occupied at equilibrium, for simple one-to-one binding. B1: the MFI in [1] came to 877; in test [3], 2280. Moreover, the Kd in [2] was 1.47 nM; with Human BCMA monomer, 35.9 nM; with Human BCMA-IHM, 44 nM. For the same molecule, the “FON, Fold Over Negative” value in [3] came to 10 fold. Also, in [4], the “FOB, Fold Over Background” value worked out at 3 fold.

B2: antibody ADI-38484 (antibody, V domains shown)
VH: QVQLVQSGAEVKKPGSSVKVSCKASGGTFSNDVISWVRQAPGQGLEWMGVIIPIFGIANYAQKFQGRVTITADESTSTAYMELSSLRSEDTAVYYCARGRGYYSSWLHDIWGQGTMVTVSS
VL: DIQMTQSPSSLSASVGDRVTITCQASQDITNYLNWYQQKPGKAPKLLIYDASNLETGVPSRFSGSGSGTDFTFTISSLQPEDIATYYCQQAFDLITFGGGTKVEIK
On to B2, for which the figures for the MFI in test [1] and in test [3] were 2720 and 7720, respectively. The Kd with Mouse BCMA-Fc stood at 0.85 nM; in [2], 1.07 nM; in the test with Human BCMA monomer it was 0.0794 nM; in the test with Human BCMA-IHM, 0.539 nM. In test [3], the “FON, Fold Over Negative” value stood at 35 fold. The “FOB, Fold Over Background” value in test [4] amounted to 11 fold.

B3: antibody ADI-38481 (antibody, V domains shown)
VH: QVQLVQSGAEVKKPGSSVKVSCKASGGTFSNDVISWVRQAPGQGLEWMGVIIPIFGIANYAQKFQGRVTITADESTSTAYMELSSLRSEDTAVYYCARGRGYYSSWLLDIWGQGTMVTVSS
VL: DIQMTQSPSSLSASVGDRVTITCQASQDITNYLNWYQQKPGKAPKLLIYDASNLETGVPSRFSGSGSGTDFTFTISSLQPEDIATYYCQQAFDLITFGGGTKVEIK
Take B3: the figures for the MFI in test [1] and in test [3] were 2620 and 6660, respectively. The Kd with Mouse BCMA-Fc is 2.44 nM; in test [2], 0.897 nM; with Human BCMA monomer it was 0.1 nM; with Human BCMA-IHM it was 0.496 nM. In [3], the “FON, Fold Over Negative” value was 31 fold. Besides, the “FOB, Fold Over Background” value in [4] was found to be 10 fold.

B4: anti-BCMA parent antibody ADI-34861 (antibody, V domains shown)
VH: QLQLQESGPGLVKPSETLSLTCTVSGGSISSSSYYWGWIRQPPGKGLEWIGSISYSGSTYYNPSLKSRVTISVDTSKNQFSLKLSSVTAADTAVYYCARDRGDTILDVWGQGTMVTVSS
VL: DIQMTQSPSSLSASVGDRVTITCRASQSISRYLNWYQQKPGKAPKLLIYAASSLQSGVPSRFSGSGSGTDFTLTISSLQPEDFATYYCQQKYFDITFGGGTKVEIK
notes: as for B1
As for B4, the MFI in test [1] was 1000; in test [3], 1400. Also, the Kd with Mouse BCMA-Fc came out at 3.68 nM; in test [2], 2.11 nM; in the test with Human BCMA monomer it was 17.3 nM; with Human BCMA-IHM it was 51.4 nM. The “FON, Fold Over Negative” value in [3] stood at 6 fold. Moreover, the “FOB, Fold Over Background” value in test [4] was 4 fold.

B5: ADI-38497 PG antibody (antibody, V domains shown)
VH: QLQLQESGPGLVKPSETLSLTCTVSGGSIVSSSYYWTWIRQPPGKGLEWIGSISIAGSTYYNPSLKSRVTISVDTSKNQFSLKLSSVTAADTAVYYCARDRGDQILDVWSQGTMVTVSS
VL: DIQMTQSPSSLSASVGDRVTITCRASQSISRYLNWYQQKPGKAPKLLIYAASSLQSGVPSRFSGSGSGTDFTLTISSLQPEDFATYYCQQKYFDITFGGGTKVEIKR
notes: Expressed in HEK293 cells
In general, EC50 refers to the concentration at which the effect is half-maximal. What is called koff is the rate constant with which the complex falls apart. As usually defined, the kon is the second-order rate constant of association. With B5, the EC50 was roughly 1.71 nM in test [5]; 1.01 nM in [6]; 1.18 nM in test [7]; 5.11 nM in [8]; 1.79 nM in test [9]; 1.49 nM in test [10]. Moreover, the EC50 came to 1.69 nM in test [15], 2.12 nM in test [16] and 2.43 nM in test [17]. Besides, the dissociation constant Kd in test [11] stood at 0.0301 nM; in test [12], 0.061 nM; in test [13] it was 83.1 nM; in [14], 1.77 nM. For the same molecule, the koff in [11] was determined as 1.03e-05 s⁻¹; in test [12], 1.76e-05 s⁻¹; in test [13] it was 0.0831 s⁻¹; in test [14], 0.000872 s⁻¹. Further, the kon in test [11] worked out at 340000 M⁻¹ s⁻¹; in [12] it was 288000 M⁻¹ s⁻¹; in test [13], 1e+06 M⁻¹ s⁻¹; in test [14] it was 492000 M⁻¹ s⁻¹.

B6: antibody ADI-38497 (antibody, V domains shown)
VH: QLQLQESGPGLVKPSETLSLTCTVSGGSIVSSSYYWTWIRQPPGKGLEWIGSISIAGSTYYNPSLKSRVTISVDTSKNQFSLKLSSVTAADTAVYYCARDRGDQILDVWSQGTMVTVSS
VL: DIQMTQSPSSLSASVGDRVTITCRASQSISRYLNWYQQKPGKAPKLLIYAASSLQSGVPSRFSGSGSGTDFTLTISSLQPEDFATYYCQQKYFDITFGGGTKVEIK
With B6, the MFI in test [1] was determined as 2320; in test [3] it was 5670. For the same molecule, the Kd was found to be 0.503 nM with Mouse BCMA-Fc, 0.602 nM in [2], 0.621 nM in the test with Human BCMA monomer and 1.02 nM with Human BCMA-IHM. In test [3], the “FON, Fold Over Negative” value came to 26 fold. Also, the “FOB, Fold Over Background” value in [4] was 8 fold.

B7: antibody ADI-38491 (antibody, V domains shown)
VH: QLQLQESGPGLVKPSETLSLTCTVSGGSIVSSSYYWTWIRQPPGKGLEWIGSISIAGSTYYNPSLKSRVTISVDTSKNQFSLKLSSVTAADTAVYYCARDRGDTILDVWGQGTMVTVSS
VL: DIQMTQSPSSLSASVGDRVTITCRASQSISRYLNWYQQKPGKAPKLLIYAASSLQSGVPSRFSGSGSGTDFTLTISSLQPEDFATYYCQQKYFDITFGGGTKVEIK
With B7, the MFI turned out to be 996 in [1] and 1100 in test [3]. Further, the Kd with Mouse BCMA-Fc is 3.04 nM; in test [2], 1.27 nM; with Human BCMA monomer, 1.02 nM; in the test with Human BCMA-IHM it was 2.62 nM. Further, the “FON, Fold Over Negative” value in test [3] stood at 5 fold. Besides, the “FOB, Fold Over Background” value in test [4] amounted to 4 fold.

B8: ADI-38484 PG antibody (antibody, human IgG1, kappa, V domains shown)
VH: QVQLVQSGAEVKKPGSSVKVSCKASGGTFSNDVISWVRQAPGQGLEWMGVIIPIFGIANYAQKFQGRVTITADESTSTAYMELSSLRSEDTAVYYCARGRGYYSSWLHDIWGQGTMVTVSS
VL: DIQMTQSPSSLSASVGDRVTITCQASQDITNYLNWYQQKPGKAPKLLIYDASNLETGVPSRFSGSGSGTDFTFTISSLQPEDIATYYCQQAFDLITFGGGTKVEIKR
notes: Expressed in HEK293 cells
In the case of B8, the EC50 in test [5] was roughly 1.55 nM; in [6], 1.95 nM; in test [8] it was 0.934 nM; in [9] it was 2.79 nM; in [16], 0.428 nM; in test [17] it was 4.25 nM.
